# The supplement of paper PMC11780869
# Test system: Bacillus subtilis
# Experiment: cleaved RNA product abundance (RNA/gDNA barcode ratio) relative to median wild-type variant (ratio to wild type); higher = more accumulation of the downstream cleavage product
# Conditions: experiment (reporter, strain, medium): exp 8a: truncated aprE reporter, strain BJT201 with 2% xylose (RNase J1 expressed); cleavage site: glnRA (positions -5 to +31 mutated)
# Summary of the method: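 Reporter mRNAs (truncated aprE or tetM) carrying barcoded, mutagenized RNase Y cleavage-site windows were made from oligos with a 9% error rate and integrated into the B. subtilis chromosome. Cultures grew in LB at 37°C from OD600 0.0003 to 0.3. Cleaved RNA was gel-selected, reverse transcribed and barcode-sequenced alongside genomic DNA barcodes, with UMI collapsing. Cleaved product abundance is the RNA:gDNA barcode ratio per variant, scaled to the median wild-type variant.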
row,Sequence,cleaved RNA product abundance
1,CGACATGTCCCGCTTCTTTCATTAATCCGTAAGCAACTGTATTGCTATATACATTTACCTTTTAAGAGGAGGAAT,0.367
2,CGACATGTCCCGCTTCTTTCATTAATCCGTAAGCAACTGTTTCGCTATATACATTTACCTTTTAAGAGGAGGAAT,0.145
3,CGACATGTCCCGCTTCTTTCATTAATCCGTAAGCAACTGTTTGGCTATATACATTTACCTTTTAAGAGGAGGAAT,0.371
4,CGACATGTCCCGCTTCTTTCATTAATCCGTAAGCAACTGTTTTACTATATACATTTACCTTTTAAGAGGAGGAAT,0.583
5,CGACATGTCCCGCTTCTTTCATTAATCCGTAAGCAACTGTTTTCCTATATACATTTACCTTTTAAGAGGAGGAAT,0.354
6,CGACATGTCCCGCTTCTTTCATTAATCCGTAAGCAACTGTTTTGATATATACATTTACCTTTTAAGAGGAGGAAT,0.329
7,CGACATGTCCCGCTTCTTTCATTAATCCGTAAGCAACTGTTTTGCCATATACATTTACCTTTTAAGAGGAGGAAT,0.295
8,CGACATGTCCCGCTTCTTTCATTAATCCGTAAGCAACTGTTTTGCTAAATACATTTACCTTTTAAGAGGAGGAAT,0.36
9,CGACATGTCCCGCTTCTTTCATTAATCCGTAAGCAACTGTTTTGCTACATACATTTACCTTTTAAGAGGAGGAAT,0.38
10,CGACATGTCCCGCTTCTTTCATTAATCCGTAAGCAACTGTTTTGCTATATAAATTTACCTTTTAAGAGGAGGAAT,0.474
11,CGACATGTCCCGCTTCTTTCATTAATCCGTAAGCAACTGTTTTGCTATATACAATTACCTTTTAAGAGGAGGAAT,0.478
12,CGACATGTCCCGCTTCTTTCATTAATCCGTAAGCAACTGTTTTGCTATATACATATACCTTTTAAGAGGAGGAAT,0.551
13,CGACATGTCCCGCTTCTTTCATTAATCCGTAAGCAACTGTTTTGCTATATACATTAACCTTTTAAGAGGAGGAAT,0.756
14,CGACATGTCCCGCTTCTTTCATTAATCCGTAAGCAACTGTTTTGCTATATACATTTAACATTTAAGAGGAGGAAT,0.275
15,CGACATGTCCCGCTTCTTTCATTAATCCGTAAGCAACTGTTTTGCTATATACATTTAACTTTTAAGAGGAGGAAT,0.79
16,CGACATGTCCCGCTTCTTTCATTAATCCGTAAGCAACTGTTTTGCTATATACATTTACATTTTAAGAGGAGGAAT,0.531
17,CGACATGTCCCGCTTCTTTCATTAATCCGTAAGCAACTGTTTTGCTATATACATTTACCATTTAAGAGGAGGAAT,0.381
18,CGACATGTCCCGCTTCTTTCATTAATCCGTAAGCAACTGTTTTGCTATATACATTTACCTTTTAAGAGGAGGAAT,0.434
19,CGACATGTCCCGCTTCTTTCATTAATCCGTAAGCAACTGTTTTGCTATATACATTTACGTTTTAAGAGGAGGAAT,0.475
20,CGACATGTCCCGCTTCTTTCATTAATCCGTAAGCAACTGTTTTGCTATATACATTTACTTTTTAAGAGGAGGAAT,0.641
21,CGACATGTCCCGCTTCTTTCATTAATCCGTAAGCAACTGTTTTGCTATATACATTTATCTTTTAAGAGGAGGAAT,0.536

row,Sequence,cleaved RNA product abundance
1,CGACATGTCCCGCTTCTTTCATTAATCCGTAAGCAACTGTTTTGCTATATACATTTCCCTTTTAAGAGGAGGAAT,0.212
2,CGACATGTCCCGCTTCTTTCATTAATCCGTAAGCAACTGTTTTGCTATATACCTTTACCTTTTAAGAGGAGGAAT,0.207
3,CGACATGTCCCGCTTCTTTCATTAATCCGTAAGCAACTGTTTTGCTATATACTTTTACCTTTTAAGAGGAGGAAT,0.307
4,CGACATGTCCCGCTTCTTTCATTAATCCGTAAGCAACTGTTTTGCTATATATATTTACCTTTTAAGAGGAGGAAT,0.449
5,CGACATGTCCCGCTTCTTTCATTAATCCGTAAGCAACTGTTTTGCTATGTACATTTACCTTTTAAGAGGAGGAAT,0.0895
6,CGACATGTCCCGCTTCTTTCATTAATCCGTAAGCAACTGTTTTGGTATATACATTTACCTTTTAAGAGGAGGAAT,0.312
7,CGACATGTCCCGCTTCTTTCATTAATCCGTAAGCAACTGTTTTGTTATATACATTTACCTTTTAAGAGGAGGAAT,0.391
8,CGACATGTCCCGCTTCTTTCATTAATCCGTAAGCAACTGTTTTTCTATATACATTTACCTTTTAAGAGGAGGAAT,0.508
9,CGACATGTCCCGCTTCTTTCATTAATCCGTAAGCAACTTTTTTGCTATATACATTTACCTTTTAAGAGGAGGAAT,0.82
10,CGACATGTCCCGCTTCTTTCATTAATCCGTAAGCAATTGTTTTGCTATATACATTTACCTTTTAAGAGGAGGAAT,0.524
11,CGACATGTCCCGCTTCTTTCATTAATCCGTAAGCATCTGTTTTGCTATATACATTTACCTTTTAAGAGGAGGAAT,0.322
12,CGACATGTCCCGCTTCTTTCATTAATCCGTAAGCTACTGTTTTGCTATATACATTTACCTTTTAAGAGGAGGAAT,0.123
13,CGACATGTCCCGCTTCTTTCATTAATCCGTAAGGAACTGTTTTGCTATATACATTTACCTTTTAAGAGGAGGAAT,0.32
14,CGACATGTCCCGCTTCTTTCATTAATCCGTAATCAACTGTTTTGCTATATACATTTACCTTTTAAGAGGAGGAAT,0.265
15,CGACATGTCCCGCTTCTTTCATTAATCCGTCAACAACTGTTTTGCTATATACATTTACCTTTTAAGAGGAGGAAT,0.384
16,CGACATGTCCCGCTTCTTTCATTAATCCGTCAGAAACTGTTTTGCTATATACATTTACCTTTTAAGAGGAGGAAT,0.185
17,CGACATGTCCCGCTTCTTTCATTAATCCGTCAGCAAATGTTTTGCTATATACATTTACCTTTTAAGAGGAGGAAT,0.398
18,CGACATGTCCCGCTTCTTTCATTAATCCGTCAGCAACTATTTTGCTATATACATTTACCTTTTAAGAGGAGGAAT,0.387
19,CGACATGTCCCGCTTCTTTCATTAATCCGTCAGCAACTGTATTGCTATATACATTTACCTTTTAAGAGGAGGAAT,0.214
20,CGACATGTCCCGCTTCTTTCATTAATCCGTCAGCAACTGTTTAGCTATATACATTTACCTTTTAAGAGGAGGAAT,0.305
21,CGACATGTCCCGCTTCTTTCATTAATCCGTCAGCAACTGTTTTGCTATATACATTAACCTTTTAAGAGGAGGAAT,0.528

row,Sequence,cleaved RNA product abundance
1,CGACATGTCCCGCTTCTTTCATTAATCCGTCAGCAACTGTTTTGCTATATACATTTAACTTTTAAGAGGAGGAAT,0.483
2,CGACATGTCCCGCTTCTTTCATTAATCCGTCAGCAACTGTTTTGCTATATACATTTACCATTTAAGAGGAGGAAT,0.704
3,CGACATGTCCCGCTTCTTTCATTAATCCGTCAGCAACTGTTTTGCTATATACATTTACCTTTTAAGAGGAGGAAT,0.406
4,CGACATGTCCCGCTTCTTTCATTAATCCGTCAGCAACTGTTTTGCTATATATATTTACCTTTTAAGAGGAGGAAT,0.367
5,CGACATGTCCCGCTTCTTTCATTAATCCGTCAGCAACTGTTTTGCTATATTCATTTACCTTTTAAGAGGAGGAAT,0.112
6,CGACATGTCCCGCTTCTTTCATTAATCCGTCAGCAACTGTTTTGTTATATACATTTACCTTTTAAGAGGAGGAAT,0.485
7,CGACATGTCCCGCTTCTTTCATTAATCCGTCAGCAACTTTTTTGCTATATACATTTACCTTTTAAGAGGAGGAAT,0.621
8,CGACATGTCCCGCTTCTTTCATTAATCCGTCCGCAACTGTTTTGCTATATACATTTACCTTTTAAGAGGAGGAAT,0.264
9,CGACATGTCCCGCTTCTTTCATTAATCCGTGAACAACTGTTTTGCTATATACATTTACCTTTTAAGAGGAGGAAT,0.232
10,CGACATGTCCCGCTTCTTTCATTAATCCGTGAGCAACTATTTTGCTATATACATTTACCTTTTAAGAGGAGGAAT,0.988
11,CGACATGTCCCGCTTCTTTCATTAATCCGTGAGCAACTGTTTAGCTATATACATTTACCTTTTAAGAGGAGGAAT,0.335
12,CGACATGTCCCGCTTCTTTCATTAATCCGTGAGCAACTGTTTTGATATATACATTTACCTTTTAAGAGGAGGAAT,0.427
13,CGACATGTCCCGCTTCTTTCATTAATCCGTGAGCAACTGTTTTGCTATACACATTTACCTTTTAAGAGGAGGAAT,0.0879
14,CGACATGTCCCGCTTCTTTCATTAATCCGTGAGCAACTGTTTTGCTATATAAATTTACCTTTTAAGAGGAGGAAT,0.357
15,CGACATGTCCCGCTTCTTTCATTAATCCGTGAGCAACTGTTTTGCTATATACATTTAACTTTTAAGAGGAGGAAT,0.854
16,CGACATGTCCCGCTTCTTTCATTAATCCGTGAGCAACTGTTTTGCTATATACATTTACCATTTAAGAGGAGGAAT,0.655
17,CGACATGTCCCGCTTCTTTCATTAATCCGTGAGCAACTGTTTTGCTATATACATTTACCTTTTAAGAGGAGGAAT,0.549
18,CGACATGTCCCGCTTCTTTCATTAATCCGTGAGCAACTGTTTTGCTATATACATTTACTTTTTAAGAGGAGGAAT,0.477
19,CGACATGTCCCGCTTCTTTCATTAATCCGTGAGCAACTGTTTTGCTATATACTTTTACCTTTTAAGAGGAGGAAT,0.154
